Measured values reported in the supplement of paper PMC5998384.

Columns and labels:
HeLa Kyoto [1] = experiment: solubility in G1/S (NP-40 vs SDS abundance) (log2 ratio); higher = more soluble; settings: cell cycle stage: G1/S
HeLa Kyoto [2] = experiment: melting temperature (median over replicates), in situ; higher = more thermally stable
HeLa Kyoto [3] = experiment: solubility change mitosis vs G1/S (difference of NP-40 vs SDS log2 ratios) (log2 ratio difference); higher = more soluble in mitosis
HeLa Kyoto [4] = experiment: thermal stability score vs G1/S (z-score of summed log2 fold changes over temperatures); higher = more thermally stable than in G1/S
[5] = cell cycle stage: early G1 (4.5 h after nocodazole release)
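For melting temperature (median over replicates), in situ in this document: HeLa Kyoto cells synchronized by double thymidine or nocodazole block, proteins quantified by TMT10plex mass spectrometry, three independent biological replicates.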
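For solubility change mitosis vs G1/S (difference of NP-40 vs SDS log2 ratios) in this document: synchronized HeLa Kyoto cells (double thymidine block for G1/S, nocodazole release for mitosis), protein amounts in NP-40 versus SDS lysates quantified by mass spectrometry, three biological replicates.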
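For solubility in G1/S (NP-40 vs SDS abundance) in this document: HeLa Kyoto cells arrested at G1/S by double thymidine block, proteins quantified by TMT10plex mass spectrometry in mild NP-40 versus SDS extracts, three biological replicates.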
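For thermal stability score vs G1/S (z-score of summed log2 fold changes over temperatures) in this document: synchronized HeLa Kyoto cells, proteins quantified by TMT10plex mass spectrometry, three biological replicates, mitosis taken 0.5 h after nocodazole release, G1/S directly after double thymidine block.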

Sequence	solubility in G1/S (log2) (HeLa Kyoto [1])	melting temperature (HeLa Kyoto [2]; cell cycle stage: G1/S) [°C]	melting temperature (HeLa Kyoto [2]; cell cycle stage: mitosis) [°C]	solubility change mitosis (log2) (HeLa Kyoto [3])	thermal stability score (HeLa Kyoto [4]; [5])	thermal stability score (HeLa Kyoto [4]; cell cycle stage: mitosis)
MAKLLSCVLGPRLYKIYRERDSERAPASVPETPTAVTAPHSSSWDTYYQPRALEKHADSILALASVFWSISYYSSPFAFFYLYRKGYLSLSKVVPFSHYAGTLLLLLAGVACLRGIGRWTNPQYRQFITILEATHRNQSSENKRQLANYNFDFRSWPVDFHWEEPSSRKESRGGPSRRGVALLRPEPLHRGTADTLLNRVKKLPCQITSYLVAHTLGRRMLYPGSVYLLQKALMPVLLQGQARLVEECNGRRAKLLACDGNEIDTMFVDRRGTAEPQGQKLVICCEGNAGFYEVGCVSTPLEAGYSVLGWNHPGFAGSTGVPFPQNEANAMDVVVQFAIHRLGFQPQDIIIYAWSIGGFTATWAAMSYPDVSAMILDASFDDLVPLALKVMPDSWRGLVTRTVRQHLNLNNAEQLCRYQGPVLLIRRTKDEIITTTVPEDIMSNRGNDLLLKLLQHRYPRVMAEEGLRVVRQWLEASSQLEEASIYSRWEVEEDWCLSVLRSYQAEHGPDFPWSVGEDMSADGRRQLALFLARKHLHNFEATHCTPLPAQNFQMPWHL [ABHD16A]	-0.125	51	51.3	-0.122	0.0741	-0.0149
MSYTPGVGGDPAQLAQRISSNIQKITQCSVEIQRTLNQLGTPQDSPELRQQLQQKQQYTNQLAKETDKYIKEFGSLPTTPSEQRQRKIQKDRLVAEFTTSLTNFQKVQRQAAEREKEFVARVRASSRVSGSFPEDSSKERNLVSWESQTQPQVQVQDEEITEDDLRLIHERESSIRQLEADIMDINEIFKDLGMMIHEQGDVIDSIEANVENAEVHVQQANQQLSRAADYQRKSRKTLCIIILILVIGVAIISLIIWGLNH [STX7]	0.637	54.1	55	0.264	-1.45	-2.01
MDRRSMGETESGDAFLDLKKPPASKCPHRYTKEELLDIKELPHSKQRPSCLSEKYDSDGVWDPEKWHASLYPASGRSSPVESLKKELDTDRPSLVRRIVDPRERVKEDDLDVVLSPQRRSFGGGCHVTAAVSSRRSGSPLEKDSDGLRLLGGRRIGSGRIISARTFEKDHRLSDKDLRDLRDRDRERDFKDKRFRREFGDSKRVFGERRRNDSYTEEEPEWFSAGPTSQSETIELTGFDDKILEEDHKGRKRTRRRTASVKEGIVECNGGVAEEDEVEVILAQEPAADQEVPRDAVLPEQSPGDFDFNEFFNLDKVPCLASMIEDVLGEGSVSASRFSRWFSNPSRSGSRSSSLGSTPHEELERLAGLEQAILSPGQNSGNYFAPIPLEDHAENKVDILEMLQKAKVDLKPLLSSLSANKEKLKESSHSGVVLSVEEVEAGLKGLKVDQQVKNSTPFMAEHLEETLSAVTNNRQLKKDGDMTAFNKLVSTMKASGTLPSQPKVSRNLESHLMSPAEIPGQPVPKNILQELLGQPVQRPASSNLLSGLMGSLEPTTSLLGQRAPSPPLSQVFQTRAASADYLRPRIPSPIGFTPGPQQLLGDPFQGMRKPMSPITAQMSQLELQQAALEGLALPHDLAVQAANFYQPGFGKPQVDRTRDGFRNRQQRVTKSPAPVHRGNSSSPAPAASITSMLSPSFTPTSVIRKMYESKEKSKEEPASGKAALGDSKEDTQKASEENLLSSSSVPSADRDSSPTTNSKLSALQRSSCSTPLSQANRYTKEQDYRPKATGRKTPTLASPVPTTPFLRPVHQVPLVPHVPMVRPAHQLHPGLVQRMLAQGVHPQHLPSLLQTGVLPPGMDLSHLQGISGPILGQPFYPLPAASHPLLNPRPGTPLHLAMVQQQLQRSVLHPPGSGSHAAAVSVQTTPQNVPSRSGLPHMHSQLEHRPSQRSSSPVGLAKWFGSDVLQQPLPSMPAKVISVDELEYRQ [EIF4ENIF1]	0.0256	50.3	49.3	0.0657	-0.104	0.531
MSDSKCDSQFYSVQVADSTFTVLKRYQQLKPIGSGAQGIVCAAFDTVLGINVAVKKLSRPFQNQTHAKRAYRELVLLKCVNHKNIISLLNVFTPQKTLEEFQDVYLVMELMDANLCQVIHMELDHERMSYLLYQMLCGIKHLHSAGIIHRDLKPSNIVVKSDCTLKILDFGLARTACTNFMMTPYVVTRYYRAPEVILGMGYKENVDIWSVGCIMGELVKGCVIFQGTDHIDQWNKVIEQLGTPSAEFMKKLQPTVRNYVENRPKYPGIKFEELFPDWIFPSESERDKIKTSQARDLLSKMLVIDPDKRISVDEALRHPYITVWYDPAEAEAPPPQIYDAQLEEREHAIEEWKELIYKEVMDWEERSKNGVVKDQPSDAAVSSNATPSQSSSINDISSMSTEQTLASDTDSSLDASTGPLEGCR [MAPK9]	-0.0645	50.9		-0.147	-0.633	-0.772
